The source of these data is paper PMC11162469, “Discovery of RXFP2 genetic association in resistant hypertensive men and RXFP2 antagonists for the treatment of resistant hypertension” (Scientific Reports, 2024).

For assay [1], the target named is human relaxin family peptide receptor 2 (RXFP2) (human) (UniProt Q8WXD0).
Assay [2] has the same target. The source holds these as a separate data set.
Assay [3] addresses rat relaxin family peptide receptor 2 (RXFP2) (rat) (UniProt Q5ECL0).
In assay [4] the target is human relaxin family peptide receptor 2 (RXFP2) (human) (UniProt Q8WXD0). The source holds these as a separate data set.
Assay [5] concerns the target rat relaxin family peptide receptor 2 (RXFP2) (rat) (UniProt Q5ECL0). The source holds these as a separate data set.
Assay [6] deals with human relaxin family peptide receptor 2 (RXFP2) (human) (UniProt Q8WXD0). This is another data set of the same source.
Assay [7] deals with rat relaxin family peptide receptor 2 (RXFP2) (rat) (UniProt Q5ECL0). The source holds these as a separate data set.
Assay [8] addresses rat RXFP1 (rat) (UniProt Q6R6I6).

Sequence of rat relaxin family peptide receptor 2 (RXFP2) (rat) (Q5ECL0 entry or part of it): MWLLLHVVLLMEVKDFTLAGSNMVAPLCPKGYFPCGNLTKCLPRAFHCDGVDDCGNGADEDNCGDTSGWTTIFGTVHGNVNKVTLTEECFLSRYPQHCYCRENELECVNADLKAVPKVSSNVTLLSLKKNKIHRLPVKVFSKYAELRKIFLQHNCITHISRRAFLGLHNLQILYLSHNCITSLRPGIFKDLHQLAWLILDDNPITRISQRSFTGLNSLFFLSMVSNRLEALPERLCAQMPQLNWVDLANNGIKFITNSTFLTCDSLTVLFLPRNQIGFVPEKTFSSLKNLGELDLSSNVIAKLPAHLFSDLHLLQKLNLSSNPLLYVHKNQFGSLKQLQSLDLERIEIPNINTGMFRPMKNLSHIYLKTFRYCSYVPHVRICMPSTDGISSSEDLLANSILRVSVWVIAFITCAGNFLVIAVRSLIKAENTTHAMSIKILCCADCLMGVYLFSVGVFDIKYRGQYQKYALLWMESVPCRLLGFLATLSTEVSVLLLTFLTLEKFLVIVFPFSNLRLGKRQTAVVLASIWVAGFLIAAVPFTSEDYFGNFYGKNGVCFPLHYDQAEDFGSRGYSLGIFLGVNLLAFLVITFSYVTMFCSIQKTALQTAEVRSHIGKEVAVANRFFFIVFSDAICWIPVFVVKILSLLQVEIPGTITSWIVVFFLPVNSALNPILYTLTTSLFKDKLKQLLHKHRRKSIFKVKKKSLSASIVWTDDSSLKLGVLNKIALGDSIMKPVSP
Sequence of human relaxin family peptide receptor 2 (RXFP2) (human) (Q8WXD0 whole entry): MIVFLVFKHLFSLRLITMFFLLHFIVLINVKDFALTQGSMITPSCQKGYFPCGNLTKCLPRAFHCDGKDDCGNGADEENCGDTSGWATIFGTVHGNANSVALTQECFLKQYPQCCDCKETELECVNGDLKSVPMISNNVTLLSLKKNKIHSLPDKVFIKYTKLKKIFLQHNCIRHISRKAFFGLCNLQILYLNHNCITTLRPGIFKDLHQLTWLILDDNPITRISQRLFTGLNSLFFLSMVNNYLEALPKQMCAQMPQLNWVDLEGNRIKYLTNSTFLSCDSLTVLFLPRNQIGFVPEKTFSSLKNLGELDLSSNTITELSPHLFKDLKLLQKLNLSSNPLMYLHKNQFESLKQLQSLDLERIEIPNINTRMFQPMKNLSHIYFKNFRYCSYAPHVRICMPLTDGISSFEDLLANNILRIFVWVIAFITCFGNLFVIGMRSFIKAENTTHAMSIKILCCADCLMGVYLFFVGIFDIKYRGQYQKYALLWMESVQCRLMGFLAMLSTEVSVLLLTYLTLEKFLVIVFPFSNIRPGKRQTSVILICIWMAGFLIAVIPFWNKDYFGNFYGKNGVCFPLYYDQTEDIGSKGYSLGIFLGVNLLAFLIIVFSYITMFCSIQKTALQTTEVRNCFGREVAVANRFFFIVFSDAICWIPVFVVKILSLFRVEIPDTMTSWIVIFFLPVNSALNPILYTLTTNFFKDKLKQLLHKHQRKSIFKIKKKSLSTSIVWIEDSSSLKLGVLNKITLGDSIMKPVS
Sequence of Human INSL3 (insulin-like peptide 3) (ligand) (P51460 21-131): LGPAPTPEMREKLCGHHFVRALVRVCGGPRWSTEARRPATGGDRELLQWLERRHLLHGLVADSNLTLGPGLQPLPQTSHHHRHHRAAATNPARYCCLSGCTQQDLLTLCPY
Sequence of INSL3 (species not stated for the stable HEK293 cAMP assays) (ligand) (P51460 21-131): as above
Sequence of relaxin (H2 Relaxin) (ligand) (P04090 25-185): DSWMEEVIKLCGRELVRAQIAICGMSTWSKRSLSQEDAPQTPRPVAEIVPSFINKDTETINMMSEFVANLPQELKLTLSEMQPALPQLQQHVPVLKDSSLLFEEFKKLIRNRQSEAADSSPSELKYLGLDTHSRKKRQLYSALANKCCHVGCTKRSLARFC
Sequence of rat RXFP1 (rat) (Q6R6I6 whole entry): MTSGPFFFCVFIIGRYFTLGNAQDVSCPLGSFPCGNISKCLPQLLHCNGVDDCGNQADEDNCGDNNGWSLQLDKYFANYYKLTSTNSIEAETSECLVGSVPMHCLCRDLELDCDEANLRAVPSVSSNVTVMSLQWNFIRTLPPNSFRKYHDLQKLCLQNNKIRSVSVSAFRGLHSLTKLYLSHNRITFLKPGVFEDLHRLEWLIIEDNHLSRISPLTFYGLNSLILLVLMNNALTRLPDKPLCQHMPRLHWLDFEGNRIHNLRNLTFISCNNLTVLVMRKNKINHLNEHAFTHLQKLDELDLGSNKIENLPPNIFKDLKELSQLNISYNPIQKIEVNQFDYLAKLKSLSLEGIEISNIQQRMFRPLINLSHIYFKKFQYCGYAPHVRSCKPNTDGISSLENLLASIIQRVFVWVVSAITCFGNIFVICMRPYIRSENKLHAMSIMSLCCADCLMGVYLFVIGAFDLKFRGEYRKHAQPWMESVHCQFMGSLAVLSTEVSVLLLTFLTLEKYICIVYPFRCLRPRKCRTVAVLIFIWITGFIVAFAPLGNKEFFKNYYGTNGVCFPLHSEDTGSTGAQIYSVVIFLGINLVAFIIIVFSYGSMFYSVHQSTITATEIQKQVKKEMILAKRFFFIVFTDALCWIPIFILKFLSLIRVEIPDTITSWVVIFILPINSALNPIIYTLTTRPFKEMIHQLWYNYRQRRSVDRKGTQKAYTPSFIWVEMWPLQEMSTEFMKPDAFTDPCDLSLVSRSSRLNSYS

“Human INSL3 (insulin-like peptide 3) (ligand)” registered an EC50, INSL3-induced cAMP (HTRF) in HEK293 expressing human RXFP2 (BacMam) in assay [1] of 0.048 nM. Also, in assay [2], the EC50, INSL3-induced intracellular calcium (FLIPR) in HEK293 Gα16 cells transiently expressing RXFP2 came out at 13.4 nM. In assay [3], this substance returned an EC50, INSL3-induced cAMP in HEK293 transiently expressing rat RXFP2 (BacMam) of 13 nM. In assay [4], this substance displayed an EC50, CYP11B1 mRNA expression after 48 h in H295R-hRXFP2 of 1.3 nM; an EC50, CYP11B2 mRNA expression after 48 h in H295R-hRXFP2 of 2 nM; an EC50, cAMP generation after 30 min in H295R stably expressing human RXFP2 of 4 nM. In addition, in assay [5], the EC50, CYP11B1 mRNA expression after 48 h in H295R-rRXFP2 stood at 0.3 nM and the EC50, CYP11B2 mRNA expression after 48 h in H295R-rRXFP2 amounted to 0.4 nM.

Substance “INSL3 (species not stated for the stable HEK293 cAMP assays) (ligand)” registered an EC50, INSL3-induced cAMP generation in HEK293-hRXFP2 (stable) in assay [6] of 2.9 nM. Moreover, in assay [7], the EC50, INSL3-induced cAMP generation in HEK293-rRXFP2 cells (stable) is 8.4 nM.

Take relaxin (H2 Relaxin) (ligand): in assay [8], the EC50, relaxin-induced cAMP generation in HEK293-rat RXFP1 (stable) was 29.5 nM.
